From US8647863 come the findings set out here.

The data set deals with ParA resolvase. Kind of data set: cell_activity. As to conditions: complete recombination of pHCNparA and pSIPHCNparA into minicircle and miniplasmid 30 min after arabinose induction in E. coli; about 50% when resolvase was ….

On to “ParA resolution sites res1/res2 (in plasmids pHCNparA, pSIPHCNparA, pSIPresHCN)”, for which the activity was 100%.
